Drawing on US20230312721A1 (published 2023), this text covers Kd, koff and kon for 16 molecules.

B1: L3H1 (antibody, human IgG1, kappa, V domains shown)
VH: QVQLVQSGAEVKKPGASVKVSCKASGYTFTNYDINWVRQATGQGLEWIGWIFPGDGSTQYNEKFQGRVTLTTNTSISTAYMELSSLRSEDTAVYYCARQTTATWFAYWGQGTLVTVSS
VL: EIVMTQSPDFQSVTPKEKVTLTCRASQSISDYLHWYQQKPDQSPKLLIKYASQSISGVPSRFSGSGSGSDFTLTINSLEAEDAGVYYCQNGHSFPLTFGQGTKLEIKR
notes: Humanized IgG1, HEK293; chains tied by the L/H names; also called YB8 L3 + YB8 H1
B2: L1H5 (antibody, human IgG1, kappa)
heavy: not shown
light: EIVLTQSPDFQSVTPKEKVTLTCRASQSISDYLHWYQQKPDQSPKLLIKYASQSISGVPSRFSGSGSGSDFTLTINSLEAEDAATYYCQNGHSFPLTFGQGTKLEIKRTVAAPSVFIFPPSDEQLKSGTASVVCLLNNFYPREAKVQWKVDNALQSGNSQESVTEQDSKDSTYSLSSTLTLSKADYEKHKVYACEVTHQGLSSPVTKSFNRGEC
notes: Humanized IgG1, HEK293; chains tied by the L/H names; also called YB8 L1 + YB8 H5
B3: L1H1 (antibody, human IgG1, kappa)
heavy: not shown
light: EIVLTQSPDFQSVTPKEKVTLTCRASQSISDYLHWYQQKPDQSPKLLIKYASQSISGVPSRFSGSGSGSDFTLTINSLEAEDAATYYCQNGHSFPLTFGQGTKLEIKRTVAAPSVFIFPPSDEQLKSGTASVVCLLNNFYPREAKVQWKVDNALQSGNSQESVTEQDSKDSTYSLSSTLTLSKADYEKHKVYACEVTHQGLSSPVTKSFNRGEC
notes: Humanized IgG1, HEK293; chains tied by the L/H names; also called YB8 L1 + YB8 H1
B4: L1H6 (antibody, human IgG1, kappa)
heavy: not shown
light: EIVLTQSPDFQSVTPKEKVTLTCRASQSISDYLHWYQQKPDQSPKLLIKYASQSISGVPSRFSGSGSGSDFTLTINSLEAEDAATYYCQNGHSFPLTFGQGTKLEIKRTVAAPSVFIFPPSDEQLKSGTASVVCLLNNFYPREAKVQWKVDNALQSGNSQESVTEQDSKDSTYSLSSTLTLSKADYEKHKVYACEVTHQGLSSPVTKSFNRGEC
notes: Humanized IgG1, HEK293; chains tied by the L/H names; also called YB8 L1 + YB8 H6
B5: L1H3 (antibody, human IgG1, kappa)
heavy: not shown
light: EIVLTQSPDFQSVTPKEKVTLTCRASQSISDYLHWYQQKPDQSPKLLIKYASQSISGVPSRFSGSGSGSDFTLTINSLEAEDAATYYCQNGHSFPLTFGQGTKLEIKRTVAAPSVFIFPPSDEQLKSGTASVVCLLNNFYPREAKVQWKVDNALQSGNSQESVTEQDSKDSTYSLSSTLTLSKADYEKHKVYACEVTHQGLSSPVTKSFNRGEC
notes: Humanized IgG1, HEK293; chains tied by the L/H names; also called YB8 L1 + YB8 H3
B6: L2H2 (antibody, human IgG1, kappa)
heavy: not shown
light: EIVMTQSPDFQSVTPKEKVTITCRASQSISDYLHWYQQKPDQSPKLLIKYASQSISGVPSRFSGSGSGSDFTLTINSLEAEDAATYYCQNGHSFPLTFGQGTKLEIKRTVAAPSVFIFPPSDEQLKSGTASVVCLLNNFYPREAKVQWKVDNALQSGNSQESVTEQDSKDSTYSLSSTLTLSKADYEKHKVYACEVTHQGLSSPVTKSFNRGEC
notes: Humanized IgG1, HEK293; chains tied by the L/H names; also called YB8 L2 + YB8 H2
B7: L3H3 (antibody, human IgG1, kappa, V domains shown)
VH: QVQLVQSGAEVKKPGASVKVSCKASGYTFTNYDINWVRQATGQGLEWMGWIFPGDGSTQYNEKFKGRVTLTRNTSISTAYMELSSLRSEDTAVYFCARQTTATWFAYWGQGTLVTVSS
VL: EIVMTQSPDFQSVTPKEKVTLTCRASQSISDYLHWYQQKPDQSPKLLIKYASQSISGVPSRFSGSGSGSDFTLTINSLEAEDAGVYYCQNGHSFPLTFGQGTKLEIKR
notes: Humanized IgG1, HEK293; chains tied by the L/H names; also called YB8 L3 + YB8 H3
B8: L1H2 (antibody, human IgG1, kappa)
heavy: not shown
light: EIVLTQSPDFQSVTPKEKVTLTCRASQSISDYLHWYQQKPDQSPKLLIKYASQSISGVPSRFSGSGSGSDFTLTINSLEAEDAATYYCQNGHSFPLTFGQGTKLEIKRTVAAPSVFIFPPSDEQLKSGTASVVCLLNNFYPREAKVQWKVDNALQSGNSQESVTEQDSKDSTYSLSSTLTLSKADYEKHKVYACEVTHQGLSSPVTKSFNRGEC
notes: Humanized IgG1, HEK293; chains tied by the L/H names; also called YB8 L1 + YB8 H2
B9: L2H5 (antibody, human IgG1, kappa)
heavy: not shown
light: EIVMTQSPDFQSVTPKEKVTITCRASQSISDYLHWYQQKPDQSPKLLIKYASQSISGVPSRFSGSGSGSDFTLTINSLEAEDAATYYCQNGHSFPLTFGQGTKLEIKRTVAAPSVFIFPPSDEQLKSGTASVVCLLNNFYPREAKVQWKVDNALQSGNSQESVTEQDSKDSTYSLSSTLTLSKADYEKHKVYACEVTHQGLSSPVTKSFNRGEC
notes: chains tied by the L/H names; Selected lead; also called YB8-L2H5; YB8 L2 + YB8 H5
B10: L2H6 (antibody, human IgG1, kappa)
heavy: not shown
light: EIVMTQSPDFQSVTPKEKVTITCRASQSISDYLHWYQQKPDQSPKLLIKYASQSISGVPSRFSGSGSGSDFTLTINSLEAEDAATYYCQNGHSFPLTFGQGTKLEIKRTVAAPSVFIFPPSDEQLKSGTASVVCLLNNFYPREAKVQWKVDNALQSGNSQESVTEQDSKDSTYSLSSTLTLSKADYEKHKVYACEVTHQGLSSPVTKSFNRGEC
notes: Humanized IgG1, HEK293; chains tied by the L/H names; also called YB8 L2 + YB8 H6
B11: L3H2 (antibody, human IgG1, kappa, V domains shown)
VH: QVQLQQSGAEVKKPGASVKVSCKASGYTFTNYDINWVRQATGQGLEWIGWIFPGDGSTQYNEKFKGRATLTRNTSISTAYMELSSLRSEDTAVYYCARQTTATWFAYWGQGTLVTVSS
VL: EIVMTQSPDFQSVTPKEKVTLTCRASQSISDYLHWYQQKPDQSPKLLIKYASQSISGVPSRFSGSGSGSDFTLTINSLEAEDAGVYYCQNGHSFPLTFGQGTKLEIKR
notes: Humanized IgG1, HEK293; chains tied by the L/H names; also called YB8 L3 + YB8 H2
B12: L2H3 (antibody, human IgG1, kappa)
heavy: not shown
light: EIVMTQSPDFQSVTPKEKVTITCRASQSISDYLHWYQQKPDQSPKLLIKYASQSISGVPSRFSGSGSGSDFTLTINSLEAEDAATYYCQNGHSFPLTFGQGTKLEIKRTVAAPSVFIFPPSDEQLKSGTASVVCLLNNFYPREAKVQWKVDNALQSGNSQESVTEQDSKDSTYSLSSTLTLSKADYEKHKVYACEVTHQGLSSPVTKSFNRGEC
notes: Humanized IgG1, HEK293; chains tied by the L/H names; Lead candidate; also called YB8 L2 + YB8 H3
B13: L2H1 (antibody, human IgG1, kappa)
heavy: not shown
light: EIVMTQSPDFQSVTPKEKVTITCRASQSISDYLHWYQQKPDQSPKLLIKYASQSISGVPSRFSGSGSGSDFTLTINSLEAEDAATYYCQNGHSFPLTFGQGTKLEIKRTVAAPSVFIFPPSDEQLKSGTASVVCLLNNFYPREAKVQWKVDNALQSGNSQESVTEQDSKDSTYSLSSTLTLSKADYEKHKVYACEVTHQGLSSPVTKSFNRGEC
notes: Humanized IgG1, HEK293; chains tied by the L/H names; also called YB8 L2 + YB8 H1
B14: L2H4 (antibody, human IgG1, kappa)
heavy: not shown
light: EIVMTQSPDFQSVTPKEKVTITCRASQSISDYLHWYQQKPDQSPKLLIKYASQSISGVPSRFSGSGSGSDFTLTINSLEAEDAATYYCQNGHSFPLTFGQGTKLEIKRTVAAPSVFIFPPSDEQLKSGTASVVCLLNNFYPREAKVQWKVDNALQSGNSQESVTEQDSKDSTYSLSSTLTLSKADYEKHKVYACEVTHQGLSSPVTKSFNRGEC
notes: Humanized IgG1, HEK293; chains tied by the L/H names; Lead candidate; also called YB8 L2 + YB8 H4
B15: L1H4 (antibody, human IgG1, kappa)
heavy: not shown
light: EIVLTQSPDFQSVTPKEKVTLTCRASQSISDYLHWYQQKPDQSPKLLIKYASQSISGVPSRFSGSGSGSDFTLTINSLEAEDAATYYCQNGHSFPLTFGQGTKLEIKRTVAAPSVFIFPPSDEQLKSGTASVVCLLNNFYPREAKVQWKVDNALQSGNSQESVTEQDSKDSTYSLSSTLTLSKADYEKHKVYACEVTHQGLSSPVTKSFNRGEC
notes: Humanized IgG1, HEK293; chains tied by the L/H names; also called YB8 L1 + YB8 H4
B16: chimeric anti-B7H3 IgG (Chimeric Heavy Chain (Parental) + Chimeric Light chain (parental)) (antibody, V domains shown)
VH: QVQLQQSGAELVKPGASVKLSCKASGYTFTNYDINWVRQRPEQGLEWIGWIFPGDGSTQYNEKFKGKATLTTDTSSSTAYMQLSRLTSEDSAVYFCARQTTATWFAYWGQGTLVTVSA
VL: DIVMTQSPATLSVTPGDRVSLSCRASQSISDYLHWYQQKSHESPRLLIKYASQSISGIPSRFSGSGSGSDFTLSINSVEPEDVGVYYCQNGHSFPLTFGAGTKLELKR
notes: Chimeric IgG1 with murine 8H9 variable domains, expressed in HEK293; also called Chimeric IgG; parental chimeric antibody

The assay deals with T1, 4Ig human B7-H3 (human, UniProt Q5ZPR3 29-466, limits assumed).
T1 construct: Soluble analyte in SPR; also called 4Ig-B7H3; 4Ig B7H3
T1 sequence: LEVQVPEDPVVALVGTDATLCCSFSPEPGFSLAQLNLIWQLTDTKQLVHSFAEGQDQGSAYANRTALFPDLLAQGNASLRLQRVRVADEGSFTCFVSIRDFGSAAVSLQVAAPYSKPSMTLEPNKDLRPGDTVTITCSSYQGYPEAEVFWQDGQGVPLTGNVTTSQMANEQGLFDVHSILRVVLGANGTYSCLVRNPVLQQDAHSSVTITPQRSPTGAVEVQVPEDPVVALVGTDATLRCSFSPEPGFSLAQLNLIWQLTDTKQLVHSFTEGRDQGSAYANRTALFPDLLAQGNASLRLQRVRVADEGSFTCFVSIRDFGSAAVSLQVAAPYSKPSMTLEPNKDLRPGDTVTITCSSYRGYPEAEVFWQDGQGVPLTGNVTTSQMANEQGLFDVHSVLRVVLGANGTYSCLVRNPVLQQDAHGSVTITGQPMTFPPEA
Kind of assay: SPR, Carterra LSA; antibody captured on anti-human Fc lawn, 4Ig human B7-H3 as analyte. How it is done:
Chimeric and humanized antibodies were generated using CDR grafting methods using closely homologous human germline sequences. Six different humanized VH and four humanized VL sequences were combined to generate 24 different humanized IgG1 antibodies. The antibodies were expressed in HEK293 cells and purified using Protein A resin. Antibodies were buffer exchanged into PBS and quantified by OD280 and titer was calculated. Sample purity and aggregation status was determined by analytical Size Exclusion Chromatography (SEC-HPLC), which separates molecules based on molecular mass and hydrodynamic volume. Area % of each peak is calculated based on total area of the peaks. Peak symmetry is calculated to determine the peak fronting (<1) or tailing (>1). A column of 300A pore size was used for detection at 280 nm and PBS as the running buffer. Surface plasmon resonance studies to assess binding affinities were carried out on a Carterra LSA instrument. An anti-human Fc antibody “lawn” was prepared on a HC30M chip by amine coupling. The chip was activated with equal volume of 100 mM MES pH 5.5, 100 mM S-NHS and 400 mM EDC. The anti-human IgG Fc antibody was immobilized. The chip was deactivated with 1 M ethanolamine pH 8.5. Antibodies were diluted and printed onto the anti-human Fc lawn. An 8-point series of 4Ig human B7-H3 was prepared.
The characterization data, including expression titers (mg of purified protein per L of culture), purity (% monomer peak by analytical SEC-HPLC) and affinity measurement by SPR (ka, kd and KD) are summarized in Table 1 and FIG. 1-4.
In general, Kd refers to the free concentration of one partner at which half of the binding sites on the other are occupied at equilibrium, for simple one-to-one binding. A low value points to tighter binding. The term koff denotes the first-order rate constant of dissociation. As a reminder, the kon is a measure of how fast the partners come together. The low end stands for slower complex formation, the high end for faster complex formation. B1 came in with a Kd of 10 nM, an off-rate (koff) of 0.00034 s⁻¹ and a kon of 34000 M⁻¹ s⁻¹.

For B2, the Kd is 11 nM, the koff turned out to be 0.00042 s⁻¹ and the kon came out at 39000 M⁻¹ s⁻¹.

B3 gave a Kd of 15 nM, an off-rate (koff) of 0.00043 s⁻¹ and an on-rate (kon) of 31000 M⁻¹ s⁻¹.

In turn, B4 displayed a Kd of 25 nM, a koff of 0.00066 s⁻¹ and a kon of 26000 M⁻¹ s⁻¹.

Molecule B5 yielded a Kd of 8.1 nM, a koff of 0.00035 s⁻¹ and a kon of 43000 M⁻¹ s⁻¹.

Molecule B6 gave a Kd of 11 nM, a koff of 0.00037 s⁻¹ and a kon of 33000 M⁻¹ s⁻¹.

B7 showed a Kd of 9.7 nM, a koff of 0.00032 s⁻¹ and a kon of 32000 M⁻¹ s⁻¹.

In turn, B8 gave a Kd of 14 nM, a koff of 0.00041 s⁻¹ and an association rate constant (kon) of 29000 M⁻¹ s⁻¹.

Regarding B9, the Kd stood at 9.4 nM, the dissociation rate constant (koff) was found to be 0.0004 s⁻¹ and the kon is 42000 M⁻¹ s⁻¹.

In turn, B10 returned a Kd of 24 nM, a koff of 0.00051 s⁻¹ and a kon of 21000 M⁻¹ s⁻¹.

Consider B11, for which the Kd worked out at 11 nM, the koff came out at 0.00035 s⁻¹ and the kon worked out at 32000 M⁻¹ s⁻¹.

For B12, the affinity, expressed as Kd, was 9.9 nM; the koff was 0.00034 s⁻¹; the kon stood at 34000 M⁻¹ s⁻¹.

As for B13, binding was put at a Kd of 11 nM, the koff was 0.00041 s⁻¹ and the kon stood at 39000 M⁻¹ s⁻¹.

As to B14, the Kd amounted to 8.2 nM, the koff was found to be 0.00036 s⁻¹ and the kon is 44000 M⁻¹ s⁻¹.

Take B15: the Kd was 9.5 nM, the koff was 0.00041 s⁻¹ and the kon turned out to be 43000 M⁻¹ s⁻¹.

The molecule B16 gave a Kd of 10 nM, a koff of 0.00079 s⁻¹ and a kon of 78000 M⁻¹ s⁻¹.
